Laboratory results from patent US20220372138A1 (IOMX THERAPEUTICS, published 2022).

T1: human IGSF11 (VSIG3) expressed on cells (human, UniProt Q5DX21 23-431)
T1 sequence: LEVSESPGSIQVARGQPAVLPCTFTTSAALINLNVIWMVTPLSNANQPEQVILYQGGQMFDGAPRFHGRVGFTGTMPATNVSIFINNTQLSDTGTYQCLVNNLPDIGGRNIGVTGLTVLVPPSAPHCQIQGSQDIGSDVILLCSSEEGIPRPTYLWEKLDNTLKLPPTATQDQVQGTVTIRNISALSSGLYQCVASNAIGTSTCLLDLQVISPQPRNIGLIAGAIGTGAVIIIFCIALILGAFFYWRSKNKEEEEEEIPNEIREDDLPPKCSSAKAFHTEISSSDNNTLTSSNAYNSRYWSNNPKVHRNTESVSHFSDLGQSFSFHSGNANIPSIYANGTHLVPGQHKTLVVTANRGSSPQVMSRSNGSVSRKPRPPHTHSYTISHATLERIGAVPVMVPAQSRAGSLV

T2: full-length ECD of human IGSF11 fused to murine Fc (human, UniProt Q5DX21 23-241)
T2 construct: also called Fc-fusion IGSF11 ECD; not shown: murine Fc
T2 sequence: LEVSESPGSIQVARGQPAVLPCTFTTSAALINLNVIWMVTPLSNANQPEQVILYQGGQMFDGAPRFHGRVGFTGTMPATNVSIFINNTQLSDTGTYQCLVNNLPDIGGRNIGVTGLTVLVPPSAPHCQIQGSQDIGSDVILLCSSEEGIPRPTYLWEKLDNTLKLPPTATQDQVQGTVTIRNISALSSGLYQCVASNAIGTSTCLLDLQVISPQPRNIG

T3: IgC2 domain of human IGSF11 fused to murine IgG2a Fc (human, UniProt Q5DX21 137-241)
T3 construct: not shown: murine IgG2a Fc-region
T3 sequence: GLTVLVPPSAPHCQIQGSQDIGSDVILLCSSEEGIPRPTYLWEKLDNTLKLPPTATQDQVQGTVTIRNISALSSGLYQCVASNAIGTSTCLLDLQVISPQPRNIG

T4: murine IGSF11 expressed on cells (mouse, UniProt P0C673 23-428)
T4 construct: MC38-IGSF11, CT26-IGSF11, MC38-wt (naturally expresses murine IGSF11)
T4 sequence: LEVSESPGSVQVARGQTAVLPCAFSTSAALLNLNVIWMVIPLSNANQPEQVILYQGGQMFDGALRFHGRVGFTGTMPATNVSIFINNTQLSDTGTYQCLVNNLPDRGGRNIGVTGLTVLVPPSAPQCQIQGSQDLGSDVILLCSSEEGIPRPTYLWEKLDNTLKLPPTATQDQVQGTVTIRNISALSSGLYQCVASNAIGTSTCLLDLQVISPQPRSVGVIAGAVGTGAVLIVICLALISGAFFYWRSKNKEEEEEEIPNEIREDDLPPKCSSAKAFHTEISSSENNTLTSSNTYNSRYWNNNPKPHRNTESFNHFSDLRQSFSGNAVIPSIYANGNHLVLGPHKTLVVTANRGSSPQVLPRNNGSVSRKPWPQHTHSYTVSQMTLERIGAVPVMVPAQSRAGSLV

T5: extracellular domain (ECD) of human IGSF11 (VSIG3), recombinant (human, UniProt Q5DX21 23-241)
T5 construct: biotinylated where captured on streptavidin; tags of the reagent not always stated; also called IGSF11 (ECD domain); ECD-IGSF11
T5 sequence: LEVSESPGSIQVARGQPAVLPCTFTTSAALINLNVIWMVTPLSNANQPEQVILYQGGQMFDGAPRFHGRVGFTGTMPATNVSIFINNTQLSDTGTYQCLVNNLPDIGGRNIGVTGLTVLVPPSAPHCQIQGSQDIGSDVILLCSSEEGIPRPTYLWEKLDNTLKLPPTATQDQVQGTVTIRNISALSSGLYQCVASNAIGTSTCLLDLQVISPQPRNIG

T6: IgV domain of human IGSF11 fused to murine IgG2a Fc (human, UniProt Q5DX21 23-143)
T6 construct: not shown: murine IgG2a Fc-region
T6 sequence: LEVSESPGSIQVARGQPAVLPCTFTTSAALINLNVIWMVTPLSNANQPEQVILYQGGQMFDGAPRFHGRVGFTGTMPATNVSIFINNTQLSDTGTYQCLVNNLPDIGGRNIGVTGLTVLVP

T7: ECD of murine IGSF11, recombinant biotinylated (mouse, UniProt P0C673 23-240)
T7 construct: whole entry named; also called Mouse IGSF11
T7 sequence: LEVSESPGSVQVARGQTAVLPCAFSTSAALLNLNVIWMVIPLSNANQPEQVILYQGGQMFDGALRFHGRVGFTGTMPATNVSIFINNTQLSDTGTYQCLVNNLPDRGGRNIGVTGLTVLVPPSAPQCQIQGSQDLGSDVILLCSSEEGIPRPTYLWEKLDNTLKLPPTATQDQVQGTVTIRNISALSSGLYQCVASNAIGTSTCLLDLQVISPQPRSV

T8: ECD of cynomolgus monkey IGSF11, recombinant biotinylated (cynomolgus monkey, UniProt Q5DX21 23-241 (human entry))
T8 construct: whole entry named
T8 chain: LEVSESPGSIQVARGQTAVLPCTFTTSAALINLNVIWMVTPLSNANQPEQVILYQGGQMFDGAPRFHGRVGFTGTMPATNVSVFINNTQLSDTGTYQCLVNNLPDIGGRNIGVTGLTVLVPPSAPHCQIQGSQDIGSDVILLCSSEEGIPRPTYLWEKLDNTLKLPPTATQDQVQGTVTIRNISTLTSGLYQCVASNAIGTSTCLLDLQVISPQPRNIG

B1: D-115 (IgG format) (antibody, V domains shown)
VH: EVQLLESGGGLVQPGGSLRLSCAASGFTFQFSALSWVRQAPGKGLEWVSAISYGGGSKYYADSVKGRFTISRDNSKNTLYLQMNSLRAEDTAVYYCARDSRDAYGVAFDLWGQGTMVTVSS
VL: ASVLTQPPSVSAAPGQKVTISCSGSSSNIGNNYVSWYQQLPGTAPKLLIYDNNKRPSGIPDRFSGSKSGTSATLGITGLQAEDEADYYCQSYESRLFVFGGGTKLTVL
B2: C-003 (IgG1 format) (antibody, V domains shown)
VH: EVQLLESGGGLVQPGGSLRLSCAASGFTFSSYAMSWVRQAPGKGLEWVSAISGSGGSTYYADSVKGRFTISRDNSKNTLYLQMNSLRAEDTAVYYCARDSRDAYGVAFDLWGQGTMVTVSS
VL: ASVLTQPPSVSAAPGQKVTISCSGSSSNIGNNYVSWYQQLPGTAPKLLIYDNNKRPSGIPDRFSGSKSGTSATLGITGLQAEDEADYYCLSYTSSQYVFGGGTKLTVL
B3: C-017 (IgG1 format) (antibody, V domains shown)
VH: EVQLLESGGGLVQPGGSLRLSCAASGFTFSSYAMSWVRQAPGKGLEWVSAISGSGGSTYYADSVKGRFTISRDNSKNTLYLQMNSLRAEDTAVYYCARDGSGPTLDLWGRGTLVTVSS
VL: DIQMTQSPSSLSASVGDRVTITCRASQSISSYLNWYQQKPGKAPKLLIYAASSLQSGVPSRFSGSGSGTDFTLTISSLQPEDFATYYCQQHRYIPPWTFGQGTKVEIK
B4: C-019 (Fab format) (Fab, V domains shown)
VH: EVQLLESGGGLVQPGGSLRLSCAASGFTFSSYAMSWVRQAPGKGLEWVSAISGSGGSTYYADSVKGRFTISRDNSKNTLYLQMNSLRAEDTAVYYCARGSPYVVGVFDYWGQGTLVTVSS
VL: DIQMTQSPSSLSASVGDRVTITCRASQSISSYLNWYQQKPGKAPKLLIYAASSLQSGVPSRFSGSGSGTDFTLTISSLQPEDFATYYCQQWQHEPPYTFGQGTKVEIK
notes: Fab from E. coli lysate
B5: C-007 (IgG1 format) (antibody, V domains shown)
VH: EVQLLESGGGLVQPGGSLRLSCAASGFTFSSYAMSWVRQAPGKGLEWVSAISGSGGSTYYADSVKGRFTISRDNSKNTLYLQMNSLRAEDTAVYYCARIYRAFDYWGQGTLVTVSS
VL: ASVLTQPPSVSAAPGQKVTISCSGSSSNIGNNYVSWYQQLPGTAPKLLIYDNNKRPSGIPDRFSGSKSGTSATLGITGLQAEDEADYYCQLYEEEHSTWVFGGGTKLTVL
B6: C-004 (Fab format) (Fab, V domains shown)
VH: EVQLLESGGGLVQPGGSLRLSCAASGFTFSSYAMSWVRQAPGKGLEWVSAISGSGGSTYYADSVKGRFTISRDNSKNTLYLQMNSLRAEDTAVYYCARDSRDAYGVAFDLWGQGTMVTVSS
VL: ASVLTQPPSVSAAPGQKVTISCSGSSSNIGNNYVSWYQQLPGTAPKLLIYDNNKRPSGIPDRFSGSKSGTSATLGITGLQAEDEADYYCLTWTGAGRIFVFGGGTKLTVL
notes: Fab from E. coli lysate
B7: C-001 (IgG1 format) (antibody, V domains shown)
VH: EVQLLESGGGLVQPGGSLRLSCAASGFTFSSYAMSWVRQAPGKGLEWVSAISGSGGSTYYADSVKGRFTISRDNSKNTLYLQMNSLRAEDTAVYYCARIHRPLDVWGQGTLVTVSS
VL: ASVLTQPPSVSAAPGQKVTISCSGSSSNIGNNYVSWYQQLPGTAPKLLIYDNNKRPSGIPDRFSGSKSGTSATLGITGLQAEDEADYYCGSWLEERSQYVFGGGTKLTVL
B8: C-013 (Fab format) (Fab, V domains shown)
VH: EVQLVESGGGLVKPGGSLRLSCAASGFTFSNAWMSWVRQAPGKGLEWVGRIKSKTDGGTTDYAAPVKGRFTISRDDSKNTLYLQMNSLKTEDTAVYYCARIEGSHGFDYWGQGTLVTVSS
VL: SYELTQPPSVSVSPGQTASITCSGDKLGDKYASWYQQKPGQSPVLVIYQDSKRPSGIPERFSGSNSGNTATLTISGTQAEDEADYYCASYLHTPKQFVFGGGTKLTVL
notes: Fab from E. coli lysate
B9: C-027 (Fab format) (Fab, V domains shown)
VH: QVQLVQSGAEVKKPGSSVKVSCKASGGTFSSYAISWVRQAPGQGLEWMGGIIPIFGTANYAQKFQGRVTITADESTSTAYMELSSLRSEDTAVYYCARENIPSYYDSSGRQDAFDIWGQGTMVTVSS
VL: SYELTQPPSVSVSPGQTASITCSGDKLGDKYASWYQQKPGQSPVLVIYQDSKRPSGIPERFSGSNSGNTATLTISGTQAEDEADYYCQSYLHKSHGAVFGGGTKLTVL
notes: Fab from E. coli lysate
B10: C-018 (Fab format) (Fab, V domains shown)
VH: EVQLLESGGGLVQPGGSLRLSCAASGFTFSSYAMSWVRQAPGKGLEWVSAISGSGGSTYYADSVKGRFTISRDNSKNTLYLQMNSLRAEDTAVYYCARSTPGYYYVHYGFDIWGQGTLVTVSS
VL: SYELTQPPSVSVSPGQTASITCSGDKLGDKYASWYQQKPGQSPVLVIYQDSKRPSGIPERFSGSNSGNTATLTISGTQAEDEADYYCQAWSTSTHSWVFGGGTKLTVL
notes: Fab from E. coli lysate

What was measured:
[1] = biological target: T1, human IGSF11 (VSIG3) expressed on cells; assay: IgG FACS Colo741
Text: (§1) Unbound antibodies were removed by washing the cells three time with FACS buffer. Bound antibodies were detected with a mouse anti-human IgG antibody conjugated with AlexaFluor647.

[2] = biological target: T2, full-length ECD of human IGSF11 fused …; assay: IgG ELISA;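 further: ELISA binding of IgG antibodies to plate-coated IGSF11 Fc-fusion proteins (full-length ECD, IgV or IgC2 domain), detected via HRP-labelled anti-human IgG with TMB development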
Experimental: (§2) Binding of IgG antibodies to each of the full-length ECD of IGSF11, to the IgV domain of IGSF11 and to the IgC2 domain of IGSF11, was tested in the ELISA assay as follows: briefly, recombinant domains of Fc-fusion IGSF11 proteins were coated at 2 ug/mL on a 384-well Maxisorp plate. The surface was blocked with 2% (w/v) skim milk powder in PBST. […] After removing all unbound antibodies by 3 wash cycles with PBST, bound IgG ABPs were detected with a goat anti-human IgG antibody conjugated with horseradish peroxidase. After three wash cycles with PBST the ELISA was developed with TMB substrate.

[3] = biological target: T3, IgC2 domain of human IGSF11 fused to …; assay: IgG ELISA;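 further: ELISA binding of IgG antibodies to plate-coated IGSF11 Fc-fusion proteins (full-length ECD, IgV or IgC2 domain), detected via HRP-labelled anti-human IgG with TMB development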
Experimental: as §2

[4] = biological target: T4, murine IGSF11 expressed on cells; assay: IgG FACS CT26-IGSF11
Text: as §1

[5] = biological target: T4, murine IGSF11 expressed on cells; assay: IgG FACS MC38-IGSF11
Text: as §1

[6] = biological target: T1, human IGSF11 (VSIG3) expressed on cells; assay: IgG FACS MDA-MB-231-IGSF11
Text: as §1

[7] = biological target: T5, extracellular domain (ECD) of human …; assay: BLI apparent affinity, IgG on AHC sensor, IGSF11 ECD 100 nM
Text: Briefly, various APBs were loaded on an optical biosensor via a commercially available Capture System (AHC sensors, ForteBio).

[8] = biological target: T6, IgV domain of human IGSF11 fused to …; assay: IgG ELISA;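 further: ELISA binding of IgG antibodies to plate-coated IGSF11 Fc-fusion proteins (full-length ECD, IgV or IgC2 domain), detected via HRP-labelled anti-human IgG with TMB development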
Experimental: as §2

[9] = biological target: T5, extracellular domain (ECD) of human …; assay: Fab ELISA
[10] = biological target: T7, ECD of murine IGSF11, recombinant …; assay: Fab ELISA
[11] = biological target: T8, ECD of cynomolgus monkey IGSF11, …; assay: Fab ELISA
Streptavidin = Streptavidin (UniProt P22629 37-163, limits assumed); assay: Fab ELISA
Sequence of Streptavidin (P22629 37-163 limits assumed): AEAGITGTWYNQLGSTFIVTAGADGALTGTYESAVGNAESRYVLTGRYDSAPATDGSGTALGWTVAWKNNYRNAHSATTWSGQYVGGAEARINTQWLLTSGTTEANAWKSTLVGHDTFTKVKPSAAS

Binder	EC50 [2] [nM]	EC50 [4] [nM]	EC50 [5] [nM]	EC50 [6] [nM]	Kd [7] [nM]	EC50 [8] [nM]	A450 [9]	A450 [10]	A450 [11]	A450 (Streptavidin)	other results
B1	–	–	–	–	–	–	–	–	–	–	EC50 [1]: < 0.1 nM
B2	< 1	< 20	< 20	10 to 15	< 15	–	–	–	–	–	EC50 [3]: < 1 nM
B3	1 to 20	20 to 50	50 to 100	15 to 25	–	1 to 20	–	–	–	–	–
B4	–	–	–	–	–	–	< 1	< 1	< 1	< 0.1	–
B5	< 1	20 to 50	< 20	< 10	< 125	< 1	–	–	–	–	–
B6	–	–	–	–	–	–	< 1	< 1	< 1	< 0.1	–
B7	< 1	20 to 50	50 to 100	< 10	< 75	< 1	–	–	–	–	–
B8	–	–	–	–	–	–	< 1	–	–	< 0.1	–
B9	–	–	–	–	–	–	< 1	–	< 1	< 0.1	–
B10	–	–	–	–	–	–	< 1	< 1	< 1	< 0.1	–
